Reference: patent US20160009798A1

Tests used:
[1] = molecular target: human oncostatin M (OSM), in-house recombinant, mammalian-cell derived (human) (UniProt P13725); assay: cell-based or functional assay
[2] = molecular target: Cynomolgus monkey (Macaca fascicularis) oncostatin M, in-house recombinant (Cynomolgus monkey (Macaca fascicularis)); assay: SPR (Biacore 3000), mAb captured by anti-Fc, OSM as analyte
[3] = molecular target: human oncostatin M (OSM), in-house recombinant, mammalian-cell derived (human) (UniProt P13725); assay: as above
[4] = molecular target: human oncostatin M (OSM), in-house recombinant, mammalian-cell derived (human) (UniProt P13725); assay: SPR competition, human OSM captured on immobilized M2 (competitor), sample injected at 300 nM
[5] = molecular target: human oncostatin M (OSM), in-house recombinant, mammalian-cell derived (human) (UniProt P13725); assay: SPR competition, human OSM captured on immobilized M54 (competitor), sample injected at 300 nM
[6] = molecular target: human oncostatin M (OSM), in-house recombinant, mammalian-cell derived (human) (UniProt P13725); assay: SPR competition, human OSM captured on immobilized M69 (competitor), sample injected at 300 nM
[7] = molecular target: human oncostatin M (OSM), in-house recombinant, mammalian-cell derived (human) (UniProt P13725); assay: SPR competition, human OSM captured on immobilized M71 (competitor), sample injected at 300 nM
[8] = molecular target: human oncostatin M (OSM), in-house recombinant, mammalian-cell derived (human) (UniProt P13725); assay: SPR competition, human OSM captured on immobilized M2 (competitor), sample injected at 300 nM, second chip
[9] = molecular target: human oncostatin M (OSM), in-house recombinant, mammalian-cell derived (human) (UniProt P13725); assay: SPR competition, human OSM captured on immobilized M55 (competitor), sample injected at 300 nM, second chip
[10] = molecular target: human oncostatin M (OSM), in-house recombinant, mammalian-cell derived (human) (UniProt P13725); assay: SPR competition, human OSM captured on immobilized M64 (competitor), sample injected at 300 nM, second chip

human oncostatin M (OSM), in-house recombinant, mammalian-cell derived (human), sequence (P13725 26-221 limits assumed): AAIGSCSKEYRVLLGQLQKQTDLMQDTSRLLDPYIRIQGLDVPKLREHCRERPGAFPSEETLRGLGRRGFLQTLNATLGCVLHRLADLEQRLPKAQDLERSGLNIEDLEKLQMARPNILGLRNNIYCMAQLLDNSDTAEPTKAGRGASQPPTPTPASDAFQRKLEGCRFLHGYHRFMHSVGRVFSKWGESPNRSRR
Cynomolgus monkey (Macaca fascicularis) oncostatin M, in-house recombinant (Cynomolgus monkey (Macaca fascicularis)), sequence (P13725 other isoform, or with tags, fused parts or gaps limits assumed): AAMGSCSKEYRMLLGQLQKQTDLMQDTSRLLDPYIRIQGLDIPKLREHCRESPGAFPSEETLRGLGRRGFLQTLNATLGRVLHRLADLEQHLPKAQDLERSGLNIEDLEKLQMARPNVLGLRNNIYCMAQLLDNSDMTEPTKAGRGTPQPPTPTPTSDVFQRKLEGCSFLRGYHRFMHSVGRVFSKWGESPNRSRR

MAB295 (R&D Systems) (antibody) was tested, and the EC50, pSTAT3 inhibition in A375 cells with 5 ng/ml hOSM [1] was 72.1 ng/ml, the KD ratio Cyno/Human [2] was 10.7 and the Kd [2] was 19.8 nM. For the same substance, the koff [2] was 0.0141 s⁻¹, the kon [2] was 710000 M⁻¹ s⁻¹ and the Kd [3] was 1.85 nM. The koff [3] was 0.00217 s⁻¹, the kon [3] was 1.18e+06 M⁻¹ s⁻¹ and the Binding Level (RU) [4] was -83 RU. The Binding Level (RU) [5] was 2900 RU, the Binding Level (RU) [6] was 2390 RU and the Binding Level (RU) [7] was 1990 RU. The Binding Level (RU) [8] was -80 RU, the Binding Level (RU) [9] was 2950 RU and the Binding Level (RU) [10] was 1950 RU.
